B11: His-tagged Sec6p (pET46-Sec6) (natural protein)
chain: MSSDPLQQVCDLIKGDLSLERVRDIKEQLLKEKSVVEYQLNKESDKYYGEVEESLKLLNLSKNSVTSIKQQINEVNKLGNDNRFAINRYDILFRATKLYETVNTTSSIYDRIYNFVALMEHIERLLVAELAEDALETGCPHLLEIHFLLTSARDFQEQVVVMAKEATEDAQRTVMKLFSRLSGIISKFDKLLDGLTYDIVEMARAEQISLAIRLFKIYDLEEREDLRIEAIRNIIKKKEIEIEKSSIKKLPNSKNTARLQDETPKVIEYPTNKGLYQEIMSGTISTRTAPRGYKHFLINGINNSISEMFGEMREKYVGDQKFDVLDNMDWIFNELIIVKEHIANCCPPHWNIFEVYFDQYYKELHSLITDLVESEPETIIILDILAFDKTFQDTLKQDFGFTKSEVKSVIGDKEKETLFKDYLNLIVVKMTEWIGNLEKAEFDVFLERSTPPHSDSDGLLFLDGTKTCFQMFTQQVEVAAGTNQAKILVGVVERFSDLLTKRQKNWISKISEEIKKQINYNHKYDIDPESITPEDECPGGLVEYLIAVSNDQMKAADYAVAISSKYGKLVSKVYEKQITNHLEGTLDGFAEVAQCSSLGLITLMFDDLRKPYQEIFSKTWYMGSQAQQIADTLDEYLLDIKPQMNSVLFVNFIDNVIGETIIKFLTALSFEHSFKNKNNKFLEAMKRDFEIFYQLFVKVLDGNESKDTLITQNFTVMEFFMDLSCEPIDSILDIWQKYLEVYWDSRIDLLVGILKCRKDVSSSERKKIVQQATEMLHEYRRNMEANGVDREPTLMRRFVLEFEKQ

How the values were obtained:
[1] = target: B11; assay: pull-down
[2] = target: B11; assay: […], pH 7.4, 0.5 µg/µl BSA
[3] = target: T1, Snc2p-M2-His6 (R75E R79E K82E) reconstituted into liposomes (S. cerevisiae, UniProt P33328 1-115, R75E | R79E | K82E); assay: […], pH 7.4, 0.5 µg/µl BSA
T1 sequence: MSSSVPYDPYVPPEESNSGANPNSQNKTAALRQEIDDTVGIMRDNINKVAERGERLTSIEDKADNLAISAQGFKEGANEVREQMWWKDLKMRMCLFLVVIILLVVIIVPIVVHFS

B1: GST-Snc2p fragment (28–92 aa) (domain or fragment)
chain: TAALRQEIDDTVGIMRDNINKVAERGERLTSIEDKADNLAISAQGFKRGANRVRKQMWWKDLKMR
binding result [1]: binds

B2: GST-Snc2p (cytosolic domain of Snc2p, 1–92 aa, fused to GST) (domain or fragment)
chain: MSSSVPYDPYVPPEESNSGANPNSQNKTAALRQEIDDTVGIMRDNINKVAERGERLTSIEDKADNLAISAQGFKRGANRVRKQMWWKDLKMR
Kd [1]: 13 ± 6 µM

B3: GST-Snc2p E60A D61A D64A (M3) (domain or fragment)
chain: MSSSVPYDPYVPPEESNSGANPNSQNKTAALRQEIDDTVGIMRDNINKVAERGERLTSIAAKAANLAISAQGFKRGANRVRKQMWWKDLKMR
binding result [1]: binds

B4: GST-Snc2p R75A (domain or fragment)
chain: MSSSVPYDPYVPPEESNSGANPNSQNKTAALRQEIDDTVGIMRDNINKVAERGERLTSIEDKADNLAISAQGFKAGANRVRKQMWWKDLKMR
binding result [1]: binds

B5: GST-Snc2p E51R E54R (M6) (domain or fragment)
chain: MSSSVPYDPYVPPEESNSGANPNSQNKTAALRQEIDDTVGIMRDNINKVARRGRRLTSIEDKADNLAISAQGFKRGANRVRKQMWWKDLKMR
binding result [1]: binds

B6: GST-Snc2p E51A E54A (M5) (domain or fragment)
chain: MSSSVPYDPYVPPEESNSGANPNSQNKTAALRQEIDDTVGIMRDNINKVAARGARLTSIEDKADNLAISAQGFKRGANRVRKQMWWKDLKMR
binding result [1]: binds

B7: GST-Snc2p K82A (domain or fragment)
chain: MSSSVPYDPYVPPEESNSGANPNSQNKTAALRQEIDDTVGIMRDNINKVAERGERLTSIEDKADNLAISAQGFKRGANRVRAQMWWKDLKMR
binding result [1]: binds

B8: GST-Snc2p E60K D61R D64R (M4) (domain or fragment)
chain: MSSSVPYDPYVPPEESNSGANPNSQNKTAALRQEIDDTVGIMRDNINKVAERGERLTSIKRKARNLAISAQGFKRGANRVRKQMWWKDLKMR
binding result [1]: binds

B9: His-MBP-Sec9ct (416–651 aa) (domain or fragment)
chain: ARQQQEEDEAVDEIKQEIKFTKQSSVASTRNTLKMAQDAERAGMNTLGMLGHQSEQLNNVEGNLDLMKVQNKVADEKVAELKKLNRSILAVHVSNPFNSKRRRREREEQLKNRKIEEKLMREQTSQQLSQSTQRIEGAMNANNNISEVRERYQRKNVLEKAKRYQFENDEEDDEMELEIDRNLDQIQQVSNRLKKMALTTGKELDSQQKRLNNIEESTDDLDINLHMNTNRLAGIR
binding result [1]: binds

B10: Snc2p-His6, full-length Snc2p reconstituted into liposomes (natural protein)
chain: MSSSVPYDPYVPPEESNSGANPNSQNKTAALRQEIDDTVGIMRDNINKVAERGERLTSIEDKADNLAISAQGFKRGANRVRKQMWWKDLKMRMCLFLVVIILLVVIIVPIVVHFS
binding result [2]: binds

GERLTSIEDKADNLAISAQGFKRGANRVRKQMWWKDLKMR (domain or fragment) [GST-Snc2p fragment (53–92 aa)]
Kd [1]: 18 µM

B11
fold reduction in binding against wild-type Snc2p liposomes [3]: ≥ 2 fold

— publication PMC3734085 (The Journal of Cell Biology, 2013)
